{"source": "patent US20110091480A1", "about": "(published 2011)", "binders": {"B1": {"name": "mAb 2H2.B8 (antibody, V domains shown)", "VH": "DVHLVESGPGLVAPSQNLSITCTVSGFSLSRYGVHWVRQPPGKGLEWLGLIWAGGVTIYNSTLMSRLSISKDSSKSQVFLKMNSLQIDDTAIYYCAREASRDHYFDYWGQGTTLTVSS", "VL": "DIVMTQSPAIMSASPGEKITMTCSASSSVSYIYWYQQKSGTSPKRWIYDTSKLASGVPFRFSGGGSGTSFSLTISSMEAEDAATYYCQQWSSNPLTFGAGTKLEIKR", "notes": "also called 2H2.B8 (IgG1)"}, "B2": {"name": "mAb 2H2.BE11 (antibody, V domains shown)", "VH": "B1 VH", "VL": "B1 VL", "notes": "also called 2H2.BE11 (IgG2b); 2H2 mAb"}, "B3": {"name": "2H2 IgG chimera (antibody, V domains shown)", "VH": "B1 VH", "VL": "B1 VL", "notes": "also called chimeric antibody; Mouse 2H2 Variable and Human IgG1 / Human Kappa Constant Region"}, "B4": {"name": "2H2 scAb (scFv)", "scFv": "DIVMTQSPAIMSASPGEKITMTCSASSSVSYIYWYQQKSGTSPKRWIYDTSKLASGVPFRFSGGGSGTSFSLTISSMEAEDAATYYCQQWSSNPLTFGAGTKLEIKRGGGGSGGGGSGGGGSGGGGSDVHLVESGPGLVAPSQNLSITCTVSGFSLSRYGVHWVRQPPGKGLEWLGLIWAGGVTIYNSTLMSRLSISKDSSKSQVFLKMNSLQIDDTAIYYCAREASRDHYFDYWGQGTTLTVSSRTVAAPSVFIFPPSDEQLKSGTASVVCLLNNFYPREAKVQWKVDNALQSGNSQESVTEQDSKDSTYSLSSTLTLSKADYEKHKVYACEVTHQGLSSPVTKSFNRGEC", "notes": "domain: human kappa light chain constant domain; also called 2H2 clone; scFv with a Human Kappa chain tag"}}, "key": {"[1]": {"target": "T1, ORF0657n-H/y (SEQ ID NO: 3) (S. aureus, UniProt A6QG30 42-609)", "T1 construct": "also called Yeast expressed ORF0657n-H/y antigen", "T1 sequence (A6QG30 42-609, tags left off)": "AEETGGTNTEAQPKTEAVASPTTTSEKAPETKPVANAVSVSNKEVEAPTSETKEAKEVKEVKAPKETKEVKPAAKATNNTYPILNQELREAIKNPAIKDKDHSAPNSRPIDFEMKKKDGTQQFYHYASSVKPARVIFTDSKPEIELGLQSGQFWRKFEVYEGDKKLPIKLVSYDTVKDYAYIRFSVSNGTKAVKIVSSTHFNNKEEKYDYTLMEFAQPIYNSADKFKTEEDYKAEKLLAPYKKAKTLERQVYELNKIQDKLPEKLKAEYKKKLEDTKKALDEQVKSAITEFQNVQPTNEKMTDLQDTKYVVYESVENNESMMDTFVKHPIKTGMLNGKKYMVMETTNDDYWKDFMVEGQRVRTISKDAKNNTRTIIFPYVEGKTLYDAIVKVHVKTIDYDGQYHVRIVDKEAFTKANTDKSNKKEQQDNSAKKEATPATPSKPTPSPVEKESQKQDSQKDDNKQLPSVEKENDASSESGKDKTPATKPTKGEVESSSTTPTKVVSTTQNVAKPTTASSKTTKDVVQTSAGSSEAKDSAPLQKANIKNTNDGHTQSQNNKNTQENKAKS", "test": "Western blot (dot blot confirmed by Western)"}, "[2]": {"target": "T2, ORF0657t (ORF0657n fragment from amino acid 42 to amino acid 486 of SEQ ID NO: 1) (S. aureus, UniProt A5IS15 42-486)", "T2 construct": "also called ORFO657t", "test": "SPR Biacore 3000, IgG captured as ligand, ORF0657t as analyte"}, "[3]": {"target": "T3, ORF0657t CNBr fragment [001-323] (Band 35 kDa) (S. aureus, UniProt A5IS15 42-363)", "T3 construct": "also called 35 kDa band", "T3 sequence": "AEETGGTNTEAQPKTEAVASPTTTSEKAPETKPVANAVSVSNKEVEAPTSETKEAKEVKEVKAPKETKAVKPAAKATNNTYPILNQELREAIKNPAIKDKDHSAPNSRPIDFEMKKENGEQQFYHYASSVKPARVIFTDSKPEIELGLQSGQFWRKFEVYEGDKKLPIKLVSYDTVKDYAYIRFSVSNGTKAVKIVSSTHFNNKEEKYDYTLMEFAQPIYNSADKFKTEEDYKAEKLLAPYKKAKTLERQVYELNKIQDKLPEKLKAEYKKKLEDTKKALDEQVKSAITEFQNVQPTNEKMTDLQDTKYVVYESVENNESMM", "test": "Western blot of CNBr cleavage products of ORF0657t with 2H2 mAb"}, "[4]": {"target": "T4, ORF0657t CNBr fragment [114-214] (Band 10 kDa) (S. aureus, UniProt A5IS15 154-254)", "T4 construct": "also called 10 kDa band", "T4 sequence": "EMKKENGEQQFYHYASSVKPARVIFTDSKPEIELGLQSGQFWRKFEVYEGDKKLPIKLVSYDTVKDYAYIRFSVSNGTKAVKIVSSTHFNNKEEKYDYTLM", "test": "Western blot of CNBr cleavage products of ORF0657t with 2H2 mAb (Band 10 kDa)"}, "[5]": {"target": "T5, ORF0657t CNBr fragment [215-302] (Band 10 kDa) (S. aureus, UniProt A5IS15 255-342)", "T5 construct": "also called 10 kDa band", "T5 sequence": "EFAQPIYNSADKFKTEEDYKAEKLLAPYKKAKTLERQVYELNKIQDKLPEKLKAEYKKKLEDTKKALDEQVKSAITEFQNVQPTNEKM", "test": "Western blot of CNBr cleavage products of ORF0657t with 2H2 mAb (Band 10 kDa)"}, "[6]": {"target": "T6, ORF0657t CNBr fragment [357-446] (Band 10 kDa) (S. aureus, UniProt A5IS15 397-486)", "T6 construct": "also called 10 kDa band", "T6 sequence (A5IS15 397-486)": "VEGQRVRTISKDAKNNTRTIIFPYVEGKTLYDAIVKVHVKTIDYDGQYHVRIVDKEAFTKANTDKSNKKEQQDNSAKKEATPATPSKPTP", "test": "Western blot of CNBr cleavage products of ORF0657t with 2H2 mAb (Band 10 kDa)"}, "[7]": {"target": "T7, ORF0657t CNBr fragment [215-356] (Band 15 kDa) (S. aureus, UniProt A5IS15 255-396)", "T7 construct": "also called 15 kDa band", "test": "Western blot of CNBr cleavage products of ORF0657t with 2H2 mAb (Band 15 kDa)"}, "[8]": {"target": "T8, ORF0657t CNBr fragment [303-446] (Band 15 kDa) (S. aureus, UniProt A5IS15 343-486)", "T8 construct": "also called 15 kDa band", "T8 sequence (A5IS15 343-486)": "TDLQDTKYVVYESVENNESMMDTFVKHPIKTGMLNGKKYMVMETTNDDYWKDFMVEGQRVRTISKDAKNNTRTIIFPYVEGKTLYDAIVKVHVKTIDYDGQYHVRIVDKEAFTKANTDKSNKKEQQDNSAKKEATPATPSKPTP", "test": "Western blot of CNBr cleavage products of ORF0657t with 2H2 mAb (Band 15 kDa)"}, "[9]": {"target": "T9, ORF0657t CNBr fragment [001-214] (Band 25 kDa) (S. aureus, UniProt A5IS15 42-254)", "T9 construct": "also called 25 kDa band", "T9 sequence": "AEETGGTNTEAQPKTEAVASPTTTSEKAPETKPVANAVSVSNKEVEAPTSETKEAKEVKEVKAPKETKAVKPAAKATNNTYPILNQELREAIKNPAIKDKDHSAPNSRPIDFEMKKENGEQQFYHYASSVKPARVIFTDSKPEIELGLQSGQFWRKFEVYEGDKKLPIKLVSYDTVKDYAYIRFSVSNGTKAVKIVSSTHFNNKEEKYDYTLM", "test": "Western blot of CNBr cleavage products of ORF0657t with 2H2 mAb (Band 25 kDa)"}, "[10]": {"target": "T10, ORF0657t CNBr fragment [116-302] (Band 25 kDa) (S. aureus, UniProt A5IS15 156-342)", "T10 construct": "also called 25 kDa band", "T10 sequence": "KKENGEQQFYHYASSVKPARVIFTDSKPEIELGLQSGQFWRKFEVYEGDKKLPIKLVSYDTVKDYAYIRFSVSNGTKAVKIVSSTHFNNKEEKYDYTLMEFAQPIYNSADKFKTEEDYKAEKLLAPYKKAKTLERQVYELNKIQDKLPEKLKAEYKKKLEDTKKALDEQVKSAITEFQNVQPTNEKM", "test": "Western blot of CNBr cleavage products of ORF0657t with 2H2 mAb (Band 25 kDa)"}, "[11]": {"target": "T2, ORF0657t (ORF0657n fragment from amino …)", "test": "SPR Biacore 3000, ORF0657t bound to the surface, antibody fragment as analyte"}}, "data": [{"binder": "B1", "values": [{"measurement": "binding result", "setting": "[1]", "value": "binds"}]}, {"binder": "B2", "values": [{"measurement": "Kd", "setting": "[2]", "value": 33, "unit": "nM"}, {"measurement": "koff", "setting": "[2]", "value": 0.00201, "unit": "s⁻¹"}, {"measurement": "kon", "setting": "[2]", "value": 61000, "unit": "M⁻¹ s⁻¹"}, {"measurement": "binding result", "setting": "[3]", "value": "no binding"}, {"measurement": "binding result", "setting": "[4]", "value": "no binding"}, {"measurement": "binding result", "setting": "[5]", "value": "no binding"}, {"measurement": "binding result", "setting": "[6]", "value": "no binding"}, {"measurement": "binding result", "setting": "[7]", "value": "no binding"}, {"measurement": "binding result", "setting": "[8]", "value": "no binding"}, {"measurement": "binding result", "setting": "[9]", "value": "no binding"}, {"measurement": "binding result", "setting": "[10]", "value": "no binding"}]}, {"binder": "B3", "values": [{"measurement": "Kd", "setting": "[2]", "value": 25, "unit": "nM"}, {"measurement": "koff", "setting": "[2]", "value": 0.00273, "unit": "s⁻¹"}, {"measurement": "kon", "setting": "[2]", "value": 110000, "unit": "M⁻¹ s⁻¹"}]}, {"binder": "B4", "values": [{"measurement": "Kd", "setting": "[11]", "value": 39, "unit": "nM"}, {"measurement": "koff", "setting": "[11]", "value": 0.00191, "unit": "s⁻¹"}, {"measurement": "kon", "setting": "[11]", "value": 49100, "unit": "M⁻¹ s⁻¹"}]}]}
